Assay results from PMC10300128.

Target: human angiotensin-converting enzyme 2 (residues 19–615), mouse IgG2a Fc fusion (human) (UniProt Q9BYF1)
Test: BLI

Chain of UniProt Q9BYF1 (Q9BYF1 19-615): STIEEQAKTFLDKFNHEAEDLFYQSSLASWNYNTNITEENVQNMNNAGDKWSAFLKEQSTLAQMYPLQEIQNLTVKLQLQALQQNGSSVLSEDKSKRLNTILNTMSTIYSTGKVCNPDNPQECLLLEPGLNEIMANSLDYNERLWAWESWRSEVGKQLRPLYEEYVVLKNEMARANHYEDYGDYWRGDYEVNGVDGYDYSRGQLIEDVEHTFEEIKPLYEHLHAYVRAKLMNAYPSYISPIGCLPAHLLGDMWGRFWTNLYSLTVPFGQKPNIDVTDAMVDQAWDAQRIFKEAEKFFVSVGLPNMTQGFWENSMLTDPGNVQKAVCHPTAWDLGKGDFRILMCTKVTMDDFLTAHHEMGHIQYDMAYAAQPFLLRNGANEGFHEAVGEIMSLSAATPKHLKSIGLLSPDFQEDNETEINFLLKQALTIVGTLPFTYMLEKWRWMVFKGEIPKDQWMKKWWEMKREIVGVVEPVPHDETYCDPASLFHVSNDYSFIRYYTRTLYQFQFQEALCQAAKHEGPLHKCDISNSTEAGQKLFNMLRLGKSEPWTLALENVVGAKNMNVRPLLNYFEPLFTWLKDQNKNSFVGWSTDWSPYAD

RhGB07 spike trimer (natural protein)
Kd: 253 nM
